Experimental data reported in PMC9287719.
Where two headings read alike, the source gives them in different places. Values belong to the substance of their own block, whether it stands above or below them.

Key:
[1] = target: Recombinant FcγRIIa (R131) with C-terminus Biotin (human); assay: BLI; Octet Red; biotinylated FcγR-AviTag loaded on Streptavidin biosensors (~0.5–1.0 nm); antibody in solution, 75 nM-1.17 nM for FcγRI, 5000 to 78.125 nM for the other receptors; PBST (PBS, 0.02% Tween20) pH 7.2; 60 s association, 60 s dissociation; steady state, one-site fit
[2] = target: Recombinant FcγRI with C-terminus Biotin (human) (UniProt P12314); assay: as above
[3] = target: Recombinant FcγRIIa (H131) with C-terminus Biotin (human) (UniProt P12318); assay: as above
[4] = target: Recombinant FcγRIIIa (F158) with C-terminus Biotin (human) (UniProt P08637); assay: as above
[5] = target: Recombinant FcγRIIIa (V158) with C-terminus Biotin (human); assay: as above
[6] = target: Recombinant FcγRIIIa (V158) with C-terminus Biotin (human)
Target sequence in this assay (P08637 17-208 F176V): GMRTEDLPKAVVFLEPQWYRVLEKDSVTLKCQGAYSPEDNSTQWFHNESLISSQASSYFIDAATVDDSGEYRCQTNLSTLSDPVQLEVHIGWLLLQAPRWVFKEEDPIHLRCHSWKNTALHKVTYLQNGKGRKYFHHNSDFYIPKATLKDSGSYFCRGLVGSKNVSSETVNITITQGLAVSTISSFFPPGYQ

[7] = target: Recombinant FcγRIIa (R131) with C-terminus Biotin (human) (UniProt P12318)
[8] = target: Recombinant FcγRIIb with C-terminus Biotin (human) (UniProt P31994); assay: other; qualitative only
[9] = target: Recombinant FcγRIIIa (F158) with C-terminus Biotin (human) (UniProt P08637)
[10] = target: Recombinant FcγRIIa (H131) with C-terminus Biotin (human) (UniProt P12318)
[11] = target: Recombinant FcγRIIb with C-terminus Biotin (human) (UniProt P31994)
[12] = target: Recombinant FcγRIIIa (F158) with C-terminus Biotin (human) (UniProt P08637); remark: listed apart in the source
[13] = target: Recombinant FcγRIIIa (V158) with C-terminus Biotin (human); remark: listed apart in the source
Target sequence in this assay (P08637 17-208 F176V): as above

[14] = target: Recombinant FcγRIIa (H131) with C-terminus Biotin (human) (UniProt P12318); remark: listed apart in the source
[15] = target: Recombinant FcγRIIa (R131) with C-terminus Biotin (human) (UniProt P12318); remark: listed apart in the source
[16] = target: Recombinant FcγRIIa (H131) with C-terminus Biotin (human) (UniProt P12318); remark: listed apart in the source
[17] = target: Recombinant FcγRIIa (R131) with C-terminus Biotin (human) (UniProt P12318); remark: listed apart in the source
[18] = target: Recombinant FcγRIIIa (F158) with C-terminus Biotin (human) (UniProt P08637); remark: listed apart in the source
[19] = target: Recombinant FcγRI with C-terminus Biotin (human) (UniProt P12314)
[20] = target: Recombinant FcγRIIa (H131) with C-terminus Biotin (human) (UniProt P12318); remark: listed apart in the source
[21] = target: Recombinant FcγRIIIa (V158) with C-terminus Biotin (human); remark: listed apart in the source
Target sequence in this assay (P08637 17-208 F176V): as above

[22] = target: Recombinant FcγRIIIa (F158) with C-terminus Biotin (human) (UniProt P08637); remark: listed apart in the source
[23] = target: Recombinant FcγRIIa (R131) with C-terminus Biotin (human) (UniProt P12318); remark: listed apart in the source
[24] = target: Recombinant FcγRIIa (R131) with C-terminus Biotin (human) (UniProt P12318); remark: listed apart in the source
[25] = target: Recombinant FcγRIIb with C-terminus Biotin (human) (UniProt P31994); remark: listed apart in the source
[26] = target: Recombinant FcγRIIIa (V158) with C-terminus Biotin (human); remark: listed apart in the source
Target sequence in this assay (P08637 17-208 F176V): as above

[27] = target: Recombinant FcγRI with C-terminus Biotin (human) (UniProt P12314); remark: listed apart in the source
[28] = target: Recombinant FcγRIIIa (F158) with C-terminus Biotin (human) (UniProt P08637); remark: listed apart in the source
[29] = target: Recombinant FcγRIIa (H131) with C-terminus Biotin (human) (UniProt P12318); remark: listed apart in the source
[30] = target: Recombinant FcγRIIa (R131) with C-terminus Biotin (human) (UniProt P12318); details: domain or fragment
[31] = target: Recombinant FcγRI with C-terminus Biotin (human) (UniProt P12314); details: domain or fragment
[32] = target: Recombinant FcγRIIIa (F158) with C-terminus Biotin (human) (UniProt P08637); details: domain or fragment
[33] = target: Recombinant FcγRIIIa (V158) with C-terminus Biotin (human); details: domain or fragment
Target sequence in this assay (P08637 17-208 F176V): as above

[34] = target: Recombinant FcγRIIIa (V158) with C-terminus Biotin (human); remark: listed apart in the source
Target sequence in this assay (P08637 17-208 F176V): as above

[35] = target: Recombinant FcγRIIa (R131) with C-terminus Biotin (human) (UniProt P12318); remark: listed apart in the source
[36] = target: Recombinant FcγRIIIa (F158) with C-terminus Biotin (human) (UniProt P08637); remark: listed apart in the source
[37] = target: Recombinant FcγRIIa (H131) with C-terminus Biotin (human) (UniProt P12318); remark: listed apart in the source
[38] = target: Recombinant FcγRIIa (H131) with C-terminus Biotin (human) (UniProt P12318); remark: listed apart in the source
[39] = target: Recombinant FcγRIIa (R131) with C-terminus Biotin (human) (UniProt P12318); remark: listed apart in the source
[40] = target: Recombinant FcγRIIIa (F158) with C-terminus Biotin (human) (UniProt P08637); remark: listed apart in the source
[41] = target: Recombinant FcγRIIIa (V158) with C-terminus Biotin (human); remark: listed apart in the source

Recombinant FcγRIIb with C-terminus Biotin (human), sequence (P31994 43-217): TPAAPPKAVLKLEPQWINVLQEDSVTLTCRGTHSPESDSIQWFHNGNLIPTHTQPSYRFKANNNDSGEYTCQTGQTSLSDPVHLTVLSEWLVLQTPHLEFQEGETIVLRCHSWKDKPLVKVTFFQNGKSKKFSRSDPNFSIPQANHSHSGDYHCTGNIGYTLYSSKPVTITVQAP
Recombinant FcγRIIa (R131) with C-terminus Biotin (human) (UniProt P12318), sequence (P12318 34-217 H167R): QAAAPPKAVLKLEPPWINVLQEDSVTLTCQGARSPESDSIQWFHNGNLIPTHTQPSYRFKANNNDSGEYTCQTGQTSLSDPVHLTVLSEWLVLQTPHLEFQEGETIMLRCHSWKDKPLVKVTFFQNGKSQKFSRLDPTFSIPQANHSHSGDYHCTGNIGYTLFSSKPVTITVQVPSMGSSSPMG
Recombinant FcγRI with C-terminus Biotin (human), sequence (P12314 16-292): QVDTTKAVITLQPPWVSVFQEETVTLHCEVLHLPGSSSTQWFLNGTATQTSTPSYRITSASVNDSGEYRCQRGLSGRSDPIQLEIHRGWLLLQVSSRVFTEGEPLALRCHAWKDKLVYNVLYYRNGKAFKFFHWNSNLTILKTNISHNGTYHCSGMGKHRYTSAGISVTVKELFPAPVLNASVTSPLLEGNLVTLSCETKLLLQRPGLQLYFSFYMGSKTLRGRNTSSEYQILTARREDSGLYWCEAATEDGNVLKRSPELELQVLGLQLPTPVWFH
Human IgG3, sequence (P01860 whole entry, looked up): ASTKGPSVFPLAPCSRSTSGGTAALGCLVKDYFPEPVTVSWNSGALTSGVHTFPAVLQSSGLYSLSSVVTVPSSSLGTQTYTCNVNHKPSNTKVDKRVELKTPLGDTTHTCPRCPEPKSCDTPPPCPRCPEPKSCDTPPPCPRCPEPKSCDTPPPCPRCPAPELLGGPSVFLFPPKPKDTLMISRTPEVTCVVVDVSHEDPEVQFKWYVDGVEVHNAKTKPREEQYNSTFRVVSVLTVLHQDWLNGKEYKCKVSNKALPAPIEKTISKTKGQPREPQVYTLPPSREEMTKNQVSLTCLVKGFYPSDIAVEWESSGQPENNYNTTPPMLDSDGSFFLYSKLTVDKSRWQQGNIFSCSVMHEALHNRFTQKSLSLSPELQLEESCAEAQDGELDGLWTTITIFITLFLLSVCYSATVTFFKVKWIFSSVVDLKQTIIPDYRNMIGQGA
Recombinant FcγRIIa (H131) with C-terminus Biotin (human), sequence (P12318 34-217): as the sequence (P12318 34-217 H167R) above, with R134H counted along it
Recombinant FcγRIIIa (F158) with C-terminus Biotin (human), sequence (P08637 17-208): as the sequence (P08637 17-208 F176V) above, with V160F counted along it

Substance: Cetuximab (antibody)
Kd [1]: 1400 nM
Kd [2]: 17 nM
Kd [3]: 970 nM
Kd [4]: 1300 nM

Substance: Flebogamma (from UniProt P01857)
IC50 [6]: 15.2 nM
IC50 [7]: 117 nM
IC50 [8]: 918 nM
IC50 [9]: 111 nM
IC50 [10]: 37.3 nM

Substance: Gamunex (from UniProt P01857)
IC50 [11]: 2670 nM
IC50 [12]: 110 nM
IC50 [13]: 17 nM
IC50 [14]: 63.5 nM
IC50 [15]: 204 nM

Substance: Human IgG (human polyclonal IgG) (from UniProt P01857)
IC50 [24]: 25.8 nM
IC50 [25]: 989 nM
IC50 [26]: 15.7 nM
IC50 [27]: 0.11 nM
IC50 [28]: 99.4 nM
IC50 [29]: 4.64 nM

Substance: NIST mAb standard (from UniProt P01857)
IC50 [34]: 44.5 nM
IC50 [35]: 261 nM
IC50 [36]: 466 nM
IC50 [37]: 98.1 nM

Next, values leading:

Kd [5]: 280 nM
Kd [1]: 400 nM
Kd [2]: 14 nM
Kd [3]: 410 nM
Substance: Etanercept (Fc fusion)

IC50 [16]: 67 nM
IC50 [17]: 122 nM
IC50 [18]: 65 nM
IC50 [19]: 0.23 nM
Substance: Human IgG1 (from UniProt P01857)

IC50 [20]: 40.8 nM
IC50 [21]: 12.3 nM
IC50 [22]: 44.8 nM
IC50 [8]: 819 nM
IC50 [23]: 85 nM
Substance: Human IgG3 (from UniProt P01860)

IC50 [30]: 2280 nM
IC50 [31]: 0.56 nM
IC50 [32]: 342 nM
IC50 [33]: 81 nM
Substance: Human IgG Fc Fragment

Kd [5]: 120 nM
Kd [1]: 340 nM
Kd [2]: 21 nM
Kd [3]: 230 nM
Kd [4]: 350 nM
Substance: Infliximab (antibody)

Kd [5]: 420 nM
Kd [1]: 800 nM
Kd [2]: 12 nM
Kd [3]: 640 nM
Substance: NIST mAb standard (antibody)

IC50 [38]: 80.9 nM
IC50 [39]: 249 nM
IC50 [8]: 2080 nM
IC50 [40]: 131 nM
IC50 [41]: 18.9 nM
Substance: Octagam (from UniProt P01857)
